Measurements as given in the DeepSol protein solubility set.

Test: soluble on expression in E. coli; label from the status in PepcDB or PDB records

Sequence	soluble on expression in E. coli
MGSDKIHHHHHHMPGLPPPAVEPAVTSIKQEDLIQSVADALQYISYYHPVDYIKNLSAAYEREESPAAKDAIAQILINSRMCAEGHRPICQDTGIVTVFLEIGMNVRWDDATMGVEDMVNEGVRRAYNHPDNKLRASVLADPAGKRANTKDNTPAVVSTKIVPGDHLEVIVAAKGGGSEAKSKFAMLNPSDSIVDWVLKTVPTMGAGWCPPGMLGIGIGGTAEKAMLLAKEALMEPIDIVDLQARGASNRAEELRLELYEKVNALGIGAQGLGGLTTVLDIKVKDYPTHAANLPVALIPNCAATRHAHFTLDGSGPVMLDPPSLEDWPKLTYNPTNARRVNLDTITREEVASFKPGEVVLLNGKLLTGRDAAHKRMIDMLNRGETLPVDFTNRFIYYVGPVDPVRDEVVGPAGPTTATRMDKFTRQMLEQTGLLGMVGKSERGDAAIDAIRDNKAVYLMAVGGSAYLVSKAIKAARVLAFEDLGMEAIYEFEVKDMPVTVAVDSTGESVHKTGPRLWQSRIGKIPVVVE	not soluble
MGSDKIHHHHHHMPHDDHITALCFNNAESYEKPILVTASRDGHFKVWILTDDSDIYKKAIAWTCDFVGSYHKYQATNCCFSEDGSLLAVSFEEIVTIWDSQTWELKCTFCQRAGKIRHLCFGRLTCSKYLLGTTDNGILCCWNLLSCSIQWSAKLNVRVMEPDPYSDHVAAVAQSSAGSDLFVFKPSEPRPLYIQKNVSREEVQWGVFVPRDVPESFTSETHQWLNRSQFYFLTKSQSLLTFSTKSPEEKLTPTSKQLLAEESLPTTPFSFILGKHRQQQGAKLTETSENELVQLPLTENIPAITELLHTPAHVLPSASFLCSLFVNSLLLSKETKSAEEVPDDVDMEGNKESDDSDEEYDLTEKDKETNNTDLGEDAIHQLSKSEEKELRKFRKVDYSWLTAL	not soluble
MGSDKIHHHHHHMPLSPQQDILEIDQDASVLRFAPQAGGRLMSWTIDGEAVIHWPEHADWSQPARIRGGNPLLFPFLGRHRVDGKIGYWRDAKGTVRELPMHGFARDLPFEAHADVHGAGLRMILTDSTATRHGYPFGFRLETAYCLADARTLDVTFTTTNTGDSRLPSRLPYYAGHHFYFTLPHTQRAATSLELPRTERRHQQDDGSISAAEPGEARYTLDEARIQDRFHCLAGAPDRPVRLVAPGLDRIVTIDLQRPDSIPWYAVTTWTEAAESDFYCVEPWLGLPDAIHNGMGLRWLEPGQTEVAALRISVDKLG	not soluble
MGSDKIHHHHHHMPPRASERSQLRGDENFVHAAHHELYNATQRRNLTKATTTIRTKRLNVTAEMPDWEAVREAGSGIKRDVGQRLDELLVQFEEAVTARGGHVHWARDAKEAGDIVTKLVEETGEKNVVKIKSMATMEIDLNNRLREAGISARETDLAELIVQLGKDKPSHILVPAIHRNRAEIRDIFIREMPNTDDSLSSEPAELAEASRSFLREQFMKAKVAISGANFGIAETGTVTIMESEGNGRMCLTLPETLISVMGIEKIIPTFQDLEVFLQLLPRSSTGERQAPYVSTWSGVTEGDGPKNFHIVLVDNGRTAVLSDEIGREALKCIRCSACLNVCPVYERAGGHAYGSTYPGPIGAILSPQMTGIKNKHDPNAYLPYASSLCGRCNEVCPVKIPFTDILLELRHKKIQTDAPKIEKAMMGAMQLAWGNSTMWNMITRMVFMGRIMGGSNGKITHLPSFLAGWTDVRDTAVPPKKSFRQWFETEEAQQLLADARRDGIHPNNPEVNQKKEN	not soluble
MGSDKIHHHHHHMPRIHFNPDGRRSPTEFEPVTVHHRKPPLDGIISSHRHNWSQLTCPLKGSMRVTTERQVWTVTSFRAVWIPPGVDHELTMVGATEFHAVFIDPQHSPLPANQCCVVDVSPLMRELMQWLGADYGPATDHSRRLTDVLLEEVRRATRRTSALVLPGDRRLKSLCEALMEDPGSTLTLGEWAHRTGASERTLARLFQIELGTTFGAWRQQLRLSCAVDLLRSGLSLSRIAADLGYADSAAFSTMFKRAFGVAPSRYHASSAQAMN	not soluble
MGSDKIHHHHHHMPRPYTLFTGQWADLPFEEVARLASGWGYDGLEIAVSGDHLDAWRWDEPGYVQSKLAVLEKYNLKVWAISNHLKGQAVCDDPIDFRHEAIVGSKVWGDGDPEGVRTRAAEEMKHTARLAKALGVDTVVGFTGSSIWQYVAMFPPVPEKVIQAGYQDFADRWNPILDVFDECGVRFAHEVHPSEIAYDYWTTVRTLEAIGHREAFGLNWDPSHFMWQGIDPVSFIWDFKDRIYHVDCKDTKLRPTGRNTVLGSHLPWGDPRRGWDFVSAGRGDVPWESSFRALTAIGYDGPISVEWEDAGMDRLHGAPEALAALKKFDFPASQTSFDAAFSSKD	not soluble
MGSDKIHHHHHHMPTVLALETSCDESAAAVLRLNNGCLQVIASRIASQVEKHAQWGGVVPEVASRLHVEALPHLVEEVLQEAGQSMARFDAVAATVTPGLAGALMVGSVTGRSLAALHALPFFGIHHLEGHLASVRLAEHPPRPPYLVLLVSGGHTELIRVGAESEMVRLGRSHDDAAGEAFDKVGRLLGLAYPGGPAIQALAATGDSGRFSLPKGRVSKPGGGFHPYDFSFSGLKTAMLRLVQALSEADEDLPRADLAASFEQVVADVLVERSLLCANDQGLKTVVMVGGVAANRRLRELMSKRGQEQGIEVHTAPLRYCTDNAAMIGAAALQRLVSGVNGSSLELGVAARWPLDKTEVLYHSPPPF	not soluble
MGSDKIHHHHHHMPYERKIINDPVFGFINIPKGLLYDIVRHPLLQRLTRIKQVGLSSVVYPGAQHTRFQHSLGAFYLMSEAITQLTSKGNFIFDSEAEAVQAAILLHDIGHGPFSHVLEDTIVQGVSHEEISLMLMERMNKEMNGQLSLAIQIFKDEYPKRFLHQLVSGQLDMDRLDYLRRDSFYTGVTEGNIGSARIIKMLDVADDRLVIESKGIYSIENFLTARRLMYWQVYLHKTSVAYERMLISTLLRAKELASQGVELFASPALHFFLYNDINHTEFHNNPDCLENFIQLDDNDIWTALKVWSNHPDKVLSTLSLGMINRNIFKVENSAEPIGEDRIKELTLQISQQLGITLSEANYFVSTPSIEKNMYDPADDSIDIIYKDGTIKNIAEASDMLNISLLSKKVKKYYLCYQRLHR	not soluble
MGSDKIHHHHHHMQDLNDLYYFVQVVKHGGFAPAGRALGIPKSKLSRRITQLEERLDTRLIHRSTRRFSVTELGQAYYRHSVAMLVEAEAAEELIQRHHAEPQGTVRLSCSPSVLHYLITPLLVRFMARCPKVEVQVEATSRRVDVIKEGFDLAIRVRFPPLEDSDLTMKVLASSPQRLMAAPSLFAERPRPRSPADLVELPSLDFEQYDHRHCWDLVGPNGASAQVPHWPRLVTDSAETLHAAALEGLGVVKLGLLVGARDIQEGRLIDVLPGWEPRGGILHAAFPSRRGLLPAVRALLDFLDEQIADEDFDTQEALINSSPRG	not soluble
MGSDKIHHHHHHMQERLIRLLEAIAGAANPPNATDLAQLTGLPRATIYRNISSLVDCGFVEVTDCGSRYVLGMRFVKIALTGKSDMHVINAVSAMMQQVVKTSGETGFLARYRGGRVDLIHIETPADPSLSYIYPGLGPRPAHACSSAKAIAAFITPELRDELLDIQPMRFNQNTITDPDQIQRELNQVRRYGYAICDGEIDEGVSSVAVPINVDRLGAIFSMGVVGPSNRIKPMVQNRILPVLSAEAVRAAAAIQHCSVVDAETTNAEALADAREGLNKTH	not soluble
MGSDKIHHHHHHMQFEPALQQGRLVKRYKRFLADIKLADGSEMTIHCPNTGSMRNCLFPGEAVWFSTSANPKRKYAYTWELMGTPNGGFIGIHSGSANALAEEAIHSGIIKELTGYDTLSREVKYGDENSRIDILLQGAQKPDCYIEVKSCTLLEDGQGFFPDAVSLRGQKHLRELMHMANLGHRAVLLFVVQHSEIFSVAPAAHIDHEYANLLKKATLSGVEVLAYRCEMSPTEIRLAQACPVRV	not soluble
MGSDKIHHHHHHMQFTDAVTVAGTRRTADGYLVATARAVRTGIQLYAGHEVGKPDQEVVRVYRAADQVFSTESLQSFSHAPITVDHPDEEVSAENWKALSVGEVSTAAKQDGQWVMLPLILKDAAAIKSVMDGKRELSAGYTCDLDFTPGVTADGEPYDAQQRGIRINHLALVDRARAGSKARIGDDGGPWGAAPISTTDKETITMSDALRTVVVDGLSVTTTDQGAQAISKLLKDLESSAAKLVDAQTRYQAALAAKDADLAKAHAERDAANAKVLSDADLDKRVAARADLITKAKAIAKDVKTDGLSDSAIRKAAVTAALGDAAVRDKADAYIDARFDILVEDAAKKSGGADPFRQVVQNGLQTADNTNGAAAAHNAMVRDMSSAWMMKKEA	not soluble
MGSDKIHHHHHHMQGRTPLLETLRELECEIRLLTVYARECCGCYEILRRKLDRLSGLIGEDCSRAQWQADSDDPALQALGLRLRDAAVQALCELEKHLCQGVLHEPGEMGRYLGSLLESIRGELDSAGIYAYARVLFVGSGALPTSALVLAREVGAHLCCLDIDEEALGCAREIARCQGLEARMQFSSLPPAELAFSRDATHFLIASLVQQKSAVLAQIRQVMRADAKVLLRHGSGIKGLFNYPVEPAELDGWRVCAERVSQPLYDTLILEKAGR	not soluble
MGSDKIHHHHHHMQKLTRINDFNEVLNSRKSVKVFDENYKIPREEMDEIITKATKAPSSVNMQPWRIAVVQSDEMKEKVKESFGFNSRQLTTSSAMLIIFGDLQNYEKAEQIYGDAVEQQLMTEDIKAQLLDWILPYYKNLSREGMKDIVNIDSSLMAMQLMLTAKAHGYDTNPIGGFDKENIADIIGYDSDRYVPVLAIAIGKKAQDAHDSVRLPIDDVREFL	not soluble
MGSDKIHHHHHHMQLSKAAEMCYEITNSYLHIDQKSQIIASTQEAIRLTRKYLLSEIFVRWSPLNGEISFSYNGGKDCQVLLLLYLSCLWEYFFIKAQNSQFDFEFQSFPMQRLPTVFIDQEETFPTLENFVLETSERYCLSLYESQRQSGASVNMADAFRDFIKIYPETEAIVIGIRHTDPFGEALKPIQRTDSNWPDFMRLQPLLHWDLTNIWSFLLYSNEPICGLYGKGFTSIGGINNSLPNPHLRKDSNNPALHFEWEIIHAFGKDAEGERSSAINTSPISVVDKERFSKYHDNYYPGWYLVDDTLERAGRIKN	not soluble
MGSDKIHHHHHHMQPHPETTPVTSCTIIDATDRSIRQTLGETSTLARLIWVDAGLASPPLCSGLARCGRCRVRITEAAPAPHEDDREFFSAEDISAGWRLACRHAPAHGMVVHVPLPVMPHRHASRPKHPGPFRLAVDLGTTSLQWSLLAPDGTVAAQGSETNPQMGAGSDVMSRIAMARSDKGRGRLRELVLQALRRIVADVEGTPATADAVPPAGSGDEPTTACGYESRVEELCVAGNTAMTAILADESVEGLASAPYRLEMRGGTALALPGLPPAWIPPLPAPFVGGDLSAGYLAVLTDHAPAFPFVLADLGTNGEFVLALSPERTLVTSVALGPALEGIGLTFGTVAQRGAITSFTLTPGGLVPYVLDGGEADGISGTGYISLVHALLRAGLLDVDGRFIQSPSSPLAARMARSIVSHRGEPCLPLARGLYLAARDIEEILKVKAAFSLAFERLLATAQMPSHALSGIHLAGALGQHALPADLEGLGFIPPGSGGRTRAVGNTSLRGAELLLTSPPLRDTLNTWREGCTVVDLTAAPDFSAAFLRHMHFHF	not soluble
MGSDKIHHHHHHMQQVISDIMTFRGSHFELGVKTGKWLQQTPLLKNREKEWKKRVPRFDIDVNETYQIFQTYAPQIWEELMGLQSILKMPTRQIILNFGHYRFTDLKESGCTVFQGKDFMVRNYDYHPATYDGRYLLYQPTDSGLAQIGPVSRVTGRMDGMNESGLTMGYNFMHRKKPANGFVCYMIGRLILENCRNVTEAIQLLKEIPHRSSFSYILMDKSLNHAIVEVTPRSIDVRYDNICTNHFEILTHENRNYTKESKERLARTISQTNDNLDMTTAFKLFNNPQYEIYSKLFKSWSGTIHTSMYQPETLTAYFTLGENAPPEIIDFKSWLDGQDLNITHFTGNIDTDLTFANK	not soluble
